Data taken from US7981997B2, “Growth factor which acts through ErbB-4 RTK” (Yeda Research And Development Co., priority 2000, dated 2011).

Key:
ErbB-4 = target: T1, ErbB-4 (Homo sapiens, UniProt Q15303); experiment: Ligand displacement analysis of radiolabeled NRG-1β on ErbB-4-expressing CHO cells; assay type: binding; settings: displacement of surface-bound radiolabeled NRG-1β
T1 construct: expressed in transfected cells; host or cells: CHO (Chinese Hamster Ovary) cells
Description: Displacement analyses of radiolabeled NRG-1β were performed with CHO cells expressing ErbB-4. Cell monolayers (2×10^5 cells) were incubated for 2 hours at 4° C. with a radiolabeled NRG-1 (5 ng/ml) in the presence of increasing concentrations of an unlabeled NRG-4 (closed triangles), or NRG-1β (closed squares). Each data point represents the mean and range (bars) of two determinations.
(§1) Growth factors were labeled with Iodogen (Pierce) as described (Karunagaran et al., 1995). Chemical crosslinking to Chinese Hamster Ovary (CHO) cells engineered to express different ErbB combinations have been performed essentially as described (Tzahar et al., 1996). Briefly, radiolabeled ligands (at 100 ng/ml) were incubated for 2 hours with cell monolayers at 4 C. The chemical crosslinking agent BS^3 (1 mM) was then added and the cells were further incubated for 45 minutes at 22 C. […] Non-specific binding was determined in the presence of a 100-fold molar excess of the unlabeled ligani. Cells were then washed, lysed in a solution containing 0.1 M NaOH and 0.1% SDS, and radioactivity determined by use of a gamma counter.
Taken together, the biological effects of NRG-4 and its complex formation with ErbB-4 implied not only specificity of recognition, but also weaker interaction relative to NRG-1. To quantify the interaction, a ligand displacement analysis on ErbB-4-expressing CHO cells was undertaken. […]

surface-expressed ErbB-4 = target: T2, surface-expressed ErbB-4 (Homo sapiens, UniProt Q15303); experiment: Covalent crosslinking to CHO cells transfected with ErbB-4; assay type: binding; settings: expression of ErbB-4 alone
T2 construct: expressed in transfected cells; host or cells: CHO (Chinese Hamster Ovary) cells
Description: CHO cells were transfected with vectors directing expression of the indicated ErbB proteins or their combinations. Two days later cell monolayers were incubated with either ^125I-NRG-1β or ^125I-NRG-4 (EGF-like domains, each at 100 ng/ml). Following 2 hours at 4° C., the covalent crosslinking reagent bis(sulfosuccinimdyl)-suberate (BS^3) was added (1 mM final concentration) and cell extracts prepared after an additional 45 minutes of incubation. The indicated ErbB proteins were then immunoprecipitated with mouse monoclonal antibodies, and the complexes resolved by gel electrophoresis and autoradiography. Arrows mark the locations of monomeric (M) and dimeric (D) receptor complexes.
as §1, with “C.” for “C. The chemical crosslinking agent BS^3 (1 mM) was then added and the cells were further incubated for 45 minutes at 22 C.”, “counter. […]” for “counter.”

[1] = system: D24 cells (32D co-expressing ErbB-4 and ErbB-2); experiment: Long-term cell survival assay in the absence of IL-3 (MTT); assay type: cell-based; settings: ligand 100 ng/ml, MTT daily
Description: (§2) FIG. 3b show survival effect of NRG-4 on ErbB-expressing derivatives of 32D cells. The indicated derivatives of 32D cells were incubated for various time intervals in the absence of IL-3. […] For control, cells were incubated with medium conditioned by IL-3-producing cells (open triangles), or with no factor (open circles). The extent of cell proliferation was determined daily by using the calorimetric MTT assay. The data presented are the mean±S.D. of 4 determinations. Note that co-expression of ErbB-1 and ErbB-2 (D12 cells) enabled cell survival in the absence of IL-3. The experiment was repeated twice with similar results.
(§3) The establishment of a series of interleukin 3 (IL-3)-dependent 32D myeloid cells expressing all combinations of ErbB proteins has been described (Alimandi et al., 1997; Pinkas-Kramarski et al., 1996; Shelly et al., 1998). Cells were maintained in RPMI medium with 10% fetal bovine serum (FBS) and dilute IL3-containing conditioned medium. […] Cell survival was determined 24 hours later, or after the indicated time intervals, by MTT assay, as previously described (Mosman, 1983). MTT (0.05 mg/ml) was incubated with the analyzed cells for 2 hours at 37 C. Living cells can transform the tetrazolium ring into dark blue formazan crystals, that can be quantified by reading the optical density at 540-630 nm after lysis of the cells with acidic isopropanol. […]

[2] = system: D4 cells (32D expressing ErbB-4); experiment: as above; assay type: cell-based; settings: ligand 100 ng/ml, MTT daily
Description: as §2, §3

T2 sequence (Q15303 26-1308, species assumed): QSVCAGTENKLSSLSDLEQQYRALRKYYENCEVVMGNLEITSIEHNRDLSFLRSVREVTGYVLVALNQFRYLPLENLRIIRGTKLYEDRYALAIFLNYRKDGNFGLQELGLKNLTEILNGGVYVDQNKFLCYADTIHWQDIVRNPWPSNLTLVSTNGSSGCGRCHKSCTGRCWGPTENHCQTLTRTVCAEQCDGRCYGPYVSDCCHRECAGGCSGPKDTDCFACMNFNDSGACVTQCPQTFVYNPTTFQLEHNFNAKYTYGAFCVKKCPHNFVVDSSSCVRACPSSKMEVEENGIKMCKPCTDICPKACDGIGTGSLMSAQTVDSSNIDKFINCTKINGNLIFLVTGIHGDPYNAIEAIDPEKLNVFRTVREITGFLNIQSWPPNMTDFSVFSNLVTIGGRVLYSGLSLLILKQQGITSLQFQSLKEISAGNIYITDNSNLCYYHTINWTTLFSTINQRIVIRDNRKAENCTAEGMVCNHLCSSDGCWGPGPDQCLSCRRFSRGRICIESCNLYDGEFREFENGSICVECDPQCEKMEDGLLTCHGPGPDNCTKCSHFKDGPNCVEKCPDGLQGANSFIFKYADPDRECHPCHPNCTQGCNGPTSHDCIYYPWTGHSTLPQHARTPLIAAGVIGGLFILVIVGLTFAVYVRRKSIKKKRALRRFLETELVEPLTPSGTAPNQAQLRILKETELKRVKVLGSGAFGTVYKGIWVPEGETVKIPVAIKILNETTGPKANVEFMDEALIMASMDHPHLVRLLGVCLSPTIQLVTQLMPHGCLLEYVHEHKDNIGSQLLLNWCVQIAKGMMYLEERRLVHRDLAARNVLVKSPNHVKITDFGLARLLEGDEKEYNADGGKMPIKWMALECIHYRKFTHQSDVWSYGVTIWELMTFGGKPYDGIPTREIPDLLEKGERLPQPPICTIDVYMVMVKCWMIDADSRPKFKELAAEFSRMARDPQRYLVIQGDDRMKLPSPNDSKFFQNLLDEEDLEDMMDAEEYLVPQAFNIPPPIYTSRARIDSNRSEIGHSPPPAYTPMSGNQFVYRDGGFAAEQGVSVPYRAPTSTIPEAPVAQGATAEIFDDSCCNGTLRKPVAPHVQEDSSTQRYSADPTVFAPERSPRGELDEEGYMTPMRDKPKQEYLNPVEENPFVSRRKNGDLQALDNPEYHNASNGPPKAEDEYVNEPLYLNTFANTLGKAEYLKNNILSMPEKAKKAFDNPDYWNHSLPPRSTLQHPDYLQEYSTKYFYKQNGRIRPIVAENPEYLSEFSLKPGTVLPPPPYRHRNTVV
T1 sequence (Q15303 26-1308, species assumed): as above

lower binding affinity to ErbB-4 compared with unlabeled NRG-1 (ErbB-4): approximately 8 fold
complex formation with ErbB-4 on CHO cells (surface-expressed ErbB-4; 125I-ligand 100 ng/ml): ability to form complexes
B1: NRG-4: synthetic refolded mouse EGF-like domain of NRG-4 (residues 4 to 50, SEQ ID NO:2) (peptide, listed as Mus musculus)
chain: MPTDHEQPCGPRHRSFCLNGGICYVIPTIPSPFCRCIENYTGARCEEVFLPSSSIPSESNLSAAFVVLAVLLTLTIAALCFLCRKGHLQRASSVQCEISLVETNNTRTRHSHREH
covalent crosslinking signal compared with radioactive NRG-1 (surface-expressed ErbB-4): weaker than that observed with a radioactive NRG-1
survival of D24 cells in the absence of IL-3 [1]: more robust, and akin to the NRG-1-treated controls
survival of D4 cells in the absence of IL-3 [2]: stimulated the survival
